Data as given in publication PMC7831021 (2021).
Bridges are numbered along the chain shown (N, C = ends). Where no end group is shown, it is not given here.

Target: beta-2-microglobulin (Homo sapiens, UniProt P61769)
Test: SPR

Sequence of beta-2-microglobulin (P61769 22-119): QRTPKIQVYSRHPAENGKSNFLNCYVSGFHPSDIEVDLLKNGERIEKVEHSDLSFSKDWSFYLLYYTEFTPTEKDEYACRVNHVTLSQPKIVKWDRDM

Kd: 300 µM
Binder: CFETAWRQNEWC (disulfide 1-12 (inferred)) [pep331]
